Data reported in the DeepSol protein solubility set.

Assay: soluble on expression in E. coli; label from the status in PepcDB or PDB records

| Sequence | soluble on expression in E. coli |
| --- | --- |
| MKFLELNKKRHATKHFTDKLVDPKDVRTAIEIATLAPSAHNSQPWKFVVVREKNAELAKLAYGSNFEQVSSAPVTIALFTDTDLAKRARKIARVGGANNFSEEQLQYFMKNLPAEFARYSEQQVSDYLALNAGLVAMNLVLALTDQGIGSNIILGFDKSKVNEVLEIEDRFRPELLITVGYTDEKLEPSYRLPVDEIIEKR | soluble |
| MKFLFYLSADNLEIARKEVLVLAERYGWVEDYQFEERLLLLDYAGEKFFERLAYTNEVTKIYDICSVSELEQVFSEIPVYDRLCCVRVKGGKGKTALERKLGALLWKRGAKVSVSNPEIVYKVYIQDDKCYVGLLEFERDTRQFFLRRPDRRPFLMPSAIKPKLARALVNLTGVLEGETLLDPMCGTGSFLIEAGLMGINPIGIDFIEKIVRGCRVNLEYYGIEGSVLLGDAKNLPLRDESVRGIATDYPYLRSTKAAGTLDELYSKTSEEFERVLKKGGRAAIVTNIDVESFFSNFEIEMKTEERVHGSLTRRIYLLRR | not soluble |
| MKFTVGNGQNQHKGVNDGFSYEIWLDNTGGNGSMTLGSGATFKAEWNAAVNRGNFLARRGLDFGSQKKATDYDYIGLDYAATYKQTASASGNSRLCVYGWFQNRGLNGVPLVEYYIIEDWVDWVPDAQGKMVTIDGAQYKIFQMDHTGPTINGGSETFKQYFSVRQQKRTSGHITVSDHFKEWAKQGWGIGNLYEVALNAEGWQSSGVADVTLLDVYTTPKGSSPALEHHHHHH | soluble |
| MKGGLLVDDEFIHGEERSLTVRKTSLFFAGDGFTVYDCKGSLVFRVDSYGGPNTRDTDEVVLMDAHGRCLLTLRRKRPSLRRRWEGYLGERSDGQKPIFGVRRSSIIGRNSVTVEVYGDYQCSEYLIEGSFGARNCTVVEAETRRKVAEIRRKVDASTNVMLGKDVFSLNVKPGFDGAFAMGLVLVLDQIYGDDLLEVGEEQVHPSAEDL | not soluble |
| MKGRIELGDVTPHNIKQLKRLNQVIFPVSYNDKFYKDVLEVGELAKLAYFNDIAVGAVCCRVDHSQNQKRLYIMTLGCLAPYRRLGIGTKMLNHVLNICGWMDGWMDGWMDGRASEIVEIPCLFLGYQFPKQSKSKLRSLVLSTFTLMDKLQRALAKRRGHK | not soluble |
| MKHKLIDDELKYLDERSRDIFRHIVEAYLNDGGPVGSRNLSRLLRQTLSPATIRNVMSDLEHLGLIYAPHVSAGRMPTQSGLRFFVDAFMEAGDLPNEERENIEAQVKEAGHAQSVEHFLVQASQVLSDLSRGAGLVLATKHEGTLKHIEFVRLDGEHALAVLVTQQGGVENRIVHLPEGVTHAQLTEATNFLNAHIQGLTLSEAKEEIARLCSETRAALDHLSHHLVETGLALWGGEGADHKIRLIVRGRSNLLEDVKAEEDLKRLRHLFDDLETRESMAQLLDLTDEGSGVRIFIGSENKLFSLSGSSLVVAPYRDSQQKVIGALGVIGPTRLNYARIVPMVDYTAQLVSQLLR | not soluble |
| MKHSHLYELQPDPYDFTQRKTCRVCLFKDVKNAAELSQQLKEGKIDAALIRAELVLEPFVLLAAANRAVHQSAHNRMSCRSLAAELVYSLSPSRNITDSLVTFGIAEHSTAIIAAIFDDDSGKAMKKLAKAIKGTPVPLMEGLPKFANVNMIKKVYQVGNPAFVEEGLSDHIVSRMVSKDFVS | not soluble |
| MKHSNKPYDSFQDELEDYIKVQKARGLEPKTCFRRMRGEYLESCGYREEFDSRPRYRMFDQRLPSGTNHSYPRSCSSSQTEDRVPQWLPAHDKIRLNSLSYCQFTRDGFSEKPVPLNLSQQEYNCGSYSVESVVHKRLCSEHSTIDPQVSHRQMHQKRKKHVEEGREKQEERPKHERKRSSEEMDLNKHRSIQRKKTKAETETVQDGTEKLKNRKEKKTRDVSSKKEDRKRRKEKKEQGEERTEEEMLWDQSILGF | not soluble |
| MKHSVNAMAGGHGAARYNSTDLPKLPAPQPIKTLKHFLDFAQALQSKKEFQETKQIVNDFVVKDLPKLQELLQKRADALPNWLTPWWLNIAYLAARTPLPVVTSPGVMFPKFDYNTEEGQLEYAAKISQAAVHFYLRAKNNQLKPDMAGKSPLDMSQYQFLFGTTRVPKVGVDEIRYGCDYKEKLQHILVIRNGHLFRVQVLDSNEQPLSIFAITQQLAKVVSESQTPNPHPVGIVSSDSRDKWANVYSSLKKDNNNAKSLEAVEKSLFVVCLDKASEPPVGYTEKDEQSRQALHGGGSKVNSSNRWFDKTIQFVIGTNGYTGMTYEHTPAEGPPVGALMDFICDQFDANTFITEGTPSNSPVQRLDISTDEEINKRIAKSSKNMDSIAEDLDIVAFTFKPYGKNFPKSSKISPDSFIQMAYQLAFYRIHSSLPPTYETATLRKFTEGRTENIRSPNTAAASFVKKMVSKPPTPVSEIYDALVHATNSHKKYTMDCMDAAGMDRHLLAWKLIATENNLPTPEIFGSNIYQQLNHFQVSTSQVPTRHFIQMCFGPSALDCYGICYNPQETELHFMISTFKSYGSTSSKKFAKELQKALIDMKSVINKATKEMSKL | not soluble |
| MKIAIAGAGAMGSRLGIMLHQGGNDVTLIDQWPAHIEAIRKNGLIADFNGEEVVANLPIFSPEEIDHQNEQVDLIIALTKAQQLDAMFKAIQPMITEKTYVLCLLNGLGHEDVLEKYVPKENILVGITMWTAGLEGPGRVKLLGDGEIELENIDPSGKKFALEVVDVFQKAGLNPSYSSNVRYSIWRKACVNGTLNGLCTILDCNIAEFGALPVSESLVKTLISEFAAVAEKEAIYLDQAEVYTHIVQTYDPNGIGLHYPSMYQDLIKNHRLTEIDYINGAVWRKGQKYNVATPFCAMLTQLVHGKEELLGAK | soluble |
| MKIALIQQKFHLNKEQTIKKTCEFIEEASKQGAELVCLGELHQSEYFCQSENVDFFDYANDYEKDVKFWANIARKNQIVLIASLFEKRSAGLYHNTAVVFEKDGSIAGKYRKMHIPDDPCFYEKFYFTPGDLGFEPINTSLGKLGVLICWDQWYPEAARIMALKGAEILIYPTAIGWFDKDKDEEKQRQLNAWLGVQKGHAIANGLYVVAINRVGFEKDVSGVEEGIRFWGNSFVFGPQGEELCLLDSQNECVKIIEIDKKRSENVRRWWPFLRDRRIEYFTDLTKRFID | soluble |
| MKIAVAGSGYVGLSLGVLLSLQNEVTIVDILPSKVDKINNGLSPIQDEYIEYYLKSKQLSIKATLDSKAAYKEAELVIIATPTNYNSRINYFDTQHVETVIKEVLSVNSHATLIIKSTIPIGFITEMRQKFQTDRIIFSPEFLRESKALYDNLYPSRIIVSCEENDSPKVKADAEKFALLLKSAAKKNNVPVLIMGASEAEAVKLFANTYLALRVAYFNELDTYAESRKLNSHMIIQGISYDDRIGMHYNNPSFGYGGYCLPKDTKQLLANYNNIPQTLIEAIVSSNNVRKSYIAKQIINVLKEQESPVKVVGVYRLIMKSNSDNFRESAIKDVIDILKSKDIKIIIYEPMLNKLESEDQSVLVNDLENFKKQANIIVTNRYDNELQDVKNKVYSRDIFGRD | soluble |
| MKIGDVEVRDDVFNVKVKKHVLWEVVKWQLAKRRQGTHSTKTRGEVAYSGRKILPQKGTGNARHGERGVNIFVGGGVAHGPKPRDYEYPLPKRVRKLGLKMALSDKARNNAIIFVDNIDLGKKPKTKKAIEFLKNLGVEKEKVLVVIPEKADVLYKSFRNLPNVRVLLPEGLNVYDVLWANKLVIQKDCLDRIYKKVEA | soluble |
| MKIGIDAGGTLIKIVQEHDNRRYYRTELTTNIQKVIDWLNNEEIETLKLTGGNAGVIADQIHHSPEIFVEFDASSKGLEILLDEQGHQIEHYIFANVGTGTSFHYFDGKDQQRVGGVGTGGGMIQGLGYLLSNITDYKELTNLAQNGDRDAIDLKVKHIYKDTEPPIPGDLTAANFGNVLHHLDNQFTSANKLASAIGVVGEVITTMAITLAREYKTNHVVYIGSSFNNNQLLREVVENYTVLRGFKPYYIENGAFSGALGALYLLEHHHHHH | soluble |
| MKIGVDAGGTLIKIVQEKNGERTYSTRLTTEIEEVIQWLNQQDCNNINLTGGQAAMINEQLNCESRVFVEFDAAAKGLEILLEEQGHFLDDYIFTNVGTGTSLHFSNGKAQKRVGGIGTGGGMIQGLGYLLTGISNYKQLTDTAQNGNRDIIDLKVKHIYKDSEPPISGDLTAANFGNVLHHLDESFTDADKLASVIAVVGEVITTMSITVAREHNTKNVAYIGSSFHNNDLLKDVVKDYTVLRGCEPYYIEHGAFSGALGSIHLLEHHHHHH | not soluble |
| MKIHPTAIIDPKAELHESVEVGPYSIIEGNVSIQEGTIIEGHVKICAGSEIGKFNRFHQGAVIGVMPQDLGFNQQLLTKTVIGDHNIFREYSNIHKGTKEDSPTVIGNKNYFMGNSHVGHDCILGNNNILTHGAVLAGHVTLGNFAFISGLVAVHQFCFVGDYSMVAGLAKVVQDVPPYSTVDGNPSTVVGLNSVGMKRAGFSPEVRNAIKHAYKVIYHSGISTRKALDELEASGNLIEQVKYIIKFFRDSDRGVTNHR | soluble |
| MKILHTADWHLGQTFYEYDRREEHLHFLEWLKQQIRQHEIDVLLIAGDVFDSPNPSAESQRMYYRFLREVTSENPSLQIIIIAGNHDSAARLEAPNPLLENMNVTVRGVVRRNAEGDIDLQHLIVPLYTEGEVTAYCLAVPYLRQGDYPSAENYSKGVQLLYEQLFNEVKEKGLPVIAMGHLQATGSEISEDDRSERTVIGGLECVSPDAFDEAIAYTALGHLHRSQRVSHRENVRYSGTPMPMSFAERNNASGVVMITISAEGTGIERLA | not soluble |
| MKILYIILFIQIGWIFPLSAQKQDSIYIGTRHTLFSEILNEERKYWIYVPETKAGEKGKAYPVLYLLDGDSFFHSVVGFTRFFSSSKTSNLPPCIVVAVLNTDRTRDFTPTCSAARRDGTICPYDKPAGGGAEQFHRFLIEELRLEVENKVPANGTNFLVGHSYAGLFTLQTLSNHPESFDSYIAIDPSLWWDRGVFLQQAAKNVYQKDFSGKHLYVAFATRQRPAIKLIQFSLADSLKNKIIPEMKNKHLHVVYKKFPDEVHGTIALPAIFDGLKSLFHNTISTKEAT | not soluble |
| MKIMILGIDIGGANTKITEIEGDNYKIHHIYFPMWKKKDELEDLLKNYNDNVDYVALVMTAELADCYKTKKEGVEDIIDKVEKAFNCPVYVFDVNGNFLTSEEAKKNYLDVSASNWNATAKFVAEFIKDSCILVDMGSTTTDIIPIKDKEVLAEKTDLDRLMNNQLVYVGTLRTPVSFLANKIEFRGKLTNLSSEYFAITADISLILNKITEEDYTCDTPDGAGKDFESCLTRLVRVLCADREMVKDDELIDFANKLYNKLLELIRENVDTIAKRYNLNDVVITGLGEEILKDALDEYNIISIKETYGKDVSLATPSFAVAKLLQKQLDKLEHHHHHH | not soluble |
| MKIRDLLKARRGPLFSFEFFPPKDPEGEEALFRTLEELKAFRPAFVSITYGAMGSTRERSVAWAQRIQSLGLNPLAHLTVAGQSRKEVAEVLHRFVESGVENLLALRGDPPRGERVFRPHPEGFRYAAELVALIRERYGDRVSVGGAAYPEGHPESESLEADLRHFKAKVEAGLDFAITQLFFNNAHYFGFLERARRAGIGIPILPGIMPVTSYRQLRRFTEVCGASIPGPLLAKLERHQDDPKAVLEIGVEHAVRQVAELLEAGVEGVHFYTLNKSPATRMVLERLGLRPASGQP | soluble |
| MKITVFGATGNVGNRVITEALLRGHEITAVLRNNARANEFDSSVKVVIGHADNVDDVVKWSDGQDLIISATRPPQGLESQLVDTAKALLSGLAQTKVRLLLVGGAASLTVPNSNGMLVVDDTDLVPTAWRDIALACLAQHKLCQENESVDWSYISPPAVIVPGERTGIFRTGSDELLVDEQGQSTISLEDFAIALLDEAEVVKHKRKRFTVAYLEHHHHHH | not soluble |
| MKIYIQPLSVNSHTVEVLANSLPKIFNAEVFVLPASDVSLKCYNASRRQYNSTCILRMLPPIKVTLGVTGKDIYAKGMNFVFGEAELGGARAVLSVFRLTTADSELYRERVVKEAVHEIGHVLGLKHCSNNCVMRFSNSVQDVDRKPVSFCRECASKIRYLEHHHHHH | soluble |
